Paper PMC2651629, “Structure of the Archaeal Pab87 Peptidase Reveals a Novel Self-Compartmentalizing Protease Family” (PLoS ONE, 2009)

Columns and labels:
[1] = molecular target: Pyrococcus abyssi Pab87 protein (Pyrococcus abyssi); assay: crystal structure; Pab87 co-crystallised with Lu-HPDO3A (200 mM), 20 mM CaCl2, 30% MPD, 100 mM sodium acetate pH 4.6, 18°C; space group P1, eight molecules per asymmetric unit; 2.2 Å
[2] = molecular target: Pyrococcus abyssi Pab87 protein (Pyrococcus abyssi); assay: cryo-EM structure; 0.5 mg/mL Pab87 in 50 mM Tris-HCl pH 8.5, 350 mM NaCl; single-particle reconstruction at around 14 Å, fitted with the X-ray structure
[3] = molecular target: Pyrococcus abyssi Pab87 protein (Pyrococcus abyssi); assay: AUC; sedimentation velocity, 20°C, 40,000 rpm, 10 µM protein in 150 mM Tris pH 8.5, 350 mM NaCl; c(s) and c(M) distributions (Sedfit)

Measured: stoichiometry N

Pyrococcus abyssi Pab87 protein (enzyme)
8: all assays above
